Where two headings read alike, the source gives them in different places.
How the values were obtained:
[1] = Immunogenicity of spartalizumab (anti-drug antibodies); assay type: in vivo, human
Protocol: (§1) Pharmacokinetic endpoints included plasma concentrations and PK parameters of FGF401 and spartalizumab. Pharmacokinetic parameters were determined with noncompartmental method(s) using Phoenix WinNonlin version 6.4 or above (Pharsight Corporation, Mountain View, Califormia, USA). Immunogenicity of spartalizumab was assessed through presence and/or concentration of anti-drug (spartalizumab) antibodies (ADA). Food effect on FGF401 exposure was evaluated through plasma concentration of FGF401 and relevant PK parameters when dosing under fed condition. Safety of the food effect was assessed through incidence and severity of AEs and serious AEs (SAEs), including changes in laboratory values, vital signs, and ECGs when dosing under fed condition.

[2] = Pharmacokinetics of spartalizumab in combination arm; assay type: in vivo, human; conditions: for AUC0-504h / AUClast / Cmax / Tmax: Cycle 1 day 1; for AUC0-504h / AUClast / Cmax: geometric mean (CV%); for Tmax: median [min, max]
Protocol: as §1
The PK analyses and summary statistics were based on pharmacokinetic analysis set. Individual as well as mean concentration-time profiles were constructed using concentration data for spartalizumab and FGF401. Descriptive statistics for PK parameters included mean, standard deviation, coefficient of variation (CV%) mean, geometric mean, median, minimum, and maximum, with only the latter 3 for time to reach maximum concentration (Tmax) and additional 90% CI for accumulation ratio (Racc). Zero concentrations were not included in the geometric mean calculations. Missing concentrations or PK parameter values were not imputed.

[3] = tested on: patients with HCC and intrahepatic cholangiocarcinoma; parameters: method as in doi:10.1200/JCO.2019.37.15_suppl.4095, doi:10.1200/JCO.2021.39.15_suppl.4090; conditions: cited from earlier work
patients with HCC = tested on: patients with HCC; parameters: method as in PMID 31575541; conditions: cited from earlier work
[4] = spartalizumab 300 mg with FGF401 80 mg, n=6
[5] = spartalizumab 300 mg with FGF401 120 mg, n=6
[6] = HCC patients with > 2 prior lines of therapy, qd schedule

spartalizumab: humanized immunoglobulin G4κ monoclonal antibody that binds PD-1 and blocks its interaction with PD-L1/PD-L2
patients positive for treatment-induced ADA for spartalizumab ([1]; One of 12 patients, C2D1 and C3D1 predose): 8.3%
ADA titers ([1]; one ADA-positive patient): low to moderate
influence of ADA on PK profiles ([1]; one ADA-positive patient): did not appear to influence the PK profiles
AUC0-504h ([2]; spartalizumab 300 mg with FGF401 80 mg, n=3): 760 (1.9) day*µg/mL
AUClast [2, 4]: 795 (34.5) day*µg/mL
Cmax [2, 4]: 74.7 µg/mL
Tmax [2, 4]: 1.58 [1.5-161] h
AUC0-504h [2, 5]: 967 (13.9) day*µg/mL
AUClast [2, 5]: 978 (15.8) day*µg/mL
Cmax [2, 5]: 87.7 µg/mL
Tmax [2, 5]: 1.5 [1.43-1.5] h
spartalizumab exposures in combination versus similar studies with 300 mg q3w ([2]; compared with refs 25, 30): might be comparable
geo-mean AUClast ([2]; spartalizumab in combination with 80 mg FGF401): 795 µg·days/mL
geo-mean AUClast ([2]; spartalizumab in combination with 120 mg FGF401): 978 µg·days/mL

C=CC(=O)Nc1cc(N2CCN(CC)CC2)ccc1Nc1cc(N(C)C(=O)Nc2c(Cl)c(OC)cc(OC)c2Cl)ncn1 [H3B-6527]
drug discontinuation due to AEs ([3]; HCC and intrahepatic cholangiocarcinoma, qd dosing): 8.3%
Grade 3 TEAE ([3]; HCC and intrahepatic cholangiocarcinoma): 12.5%
OS [3, 6]: 10.6 months
PFS [3, 6]: 4.1 months
ORR ([3]; all PR, HCC patients with > 2 prior lines of therapy, qd schedule): 16.7%
clinical benefit rate ([3]; responders + durable SD > 17 weeks, HCC, qd schedule): 45.8%

C=CC(=O)N[C@H]1CCOC[C@H]1Nc1ncc2cc(-c3c(Cl)c(OC)cc(OC)c3Cl)ccc2n1 [BLU-554, fisogatinib]
ORR (patients with HCC; FGF19-negative patients): 0%
median duration of response (patients with HCC; FGF19-positive patients, 95% CI: 3.7-not reached): 5.3 months
ORR (patients with HCC; FGF19-positive patients): 17%
Treatment discontinuation due to AE (patients with HCC): 12%
Grade ≥ 3 TRAEs (patients with HCC; most common transaminase elevation): 43%
treatment related AE: diarrhea (patients with HCC; qd): 74%
treatment related AE: nausea (patients with HCC; qd): 42%
treatment related AE: vomiting (patients with HCC; qd): 35%

Reference: PMC9161616, “A first-in-human phase 1/2 study of FGF401 and combination of FGF401 with spartalizumab in patients with hepatocellular carcinoma or biomarker-selected solid tumors” (Journal of Experimental & Clinical Cancer Research : CR, 2022)
